The values below come from patent US20190085043A1, “FUSION PROTEINS FOR TREATING A METABOLIC SYNDROME” (SANOFI, priority 2012, published 2019).

As usually defined, the EC50 is the midpoint of the concentration-response curve.

The target in one experiment is human FGFR1c plus KLB (Homo sapiens, UniProt P11362+Q86Z14). Put plainly: FGF-21 receptor autophosphorylation In-Cell Western (pFGFR ICW) in CHO cells. It is filed as cell-based. The note with it: CHO cells overexpressing human FGFR1c plus KLB, FGFR autophosphorylation. How it is done: FIG. 1B-1 to FIG. 1B-4) The FGF induced FGFR autophosphorylation was measured via a specific and highly sensitive In-Cell Western (ICW) in CHO cells stably overexpressing human FGFR1c together with human betaKlotho (KLB). In-Cell Western assay is an immunocytochemical assay usually performed in microplate format. Target-specific primary antibodies and infrared-labelled secondary antibodies are used to detect target proteins in fixed cells, and fluorescent signal from each well is quantified (e.g. the In-Cell Western assay from LI-COR Biosciences, USA).
The cellular efficacy of FGF-21 or FGF-21 fusion proteins was measured using a specific and highly sensitive In-Cell Western (ICW) assay. The ICW assay is an immunocytochemical assay usually performed in microplate format.
(§1) CHO Flp-In cells (Invitrogen, Darmstadt, Germany) stable expressing the human FGFR1c together with human beta-Klotho (KLB) were used for FGF-21 receptor autophosphorylation assay using In-Cell Western. In order to determine the receptor autophosphorylation level, 2×10^4 cells/well were seeded into 96-well plates and grown for 48 h. […] Subsequently cells were washed again with PBS+0.1% Tween20 and infrared dye signals were quantified with an Odyssey imager (LICOR, Bad Homburg, Germany). Results were normalized by quantification of DNA with TO-PRO3 dye (Invitrogen, Karlsruhe, Germany). […]

A further experiment has as its system MAP kinase ERK1/2. Briefly: ERK1/2 phosphorylation In-Cell Western (pERK ICW) in CHO cells overexpressing human FGFR1c plus KLB. It is filed as cell-based. The note with it: ERK1/2 phosphorylation Thr202/Tyr204. The procedure:
FIG. 1C-1 to FIG. 1C-3) Dose dependent in vitro activation of the downstream effector ERK. Activation of the downstream effector of FGF signaling, the MAP kinase ERK1/2, was determined via In-Cell Western assay in CHO cells stably overexpressing human FGFR1c and KLB using an antibody directed against the ERK1/2 phosphorylated amino acid residues threonine 202 and tyrosine 204.
as §1, with “h. Cells were serum starved with serum-free medium Ham's F-12 Nutrient Mix with GlutaMAX (Gibco, Darmstadt, Germany) for 3-4 h.” for “h.”
To assess the activation of a downstream effector of FGFR signalling by FGF-21-GLP-1RA fusion proteins the phosphorylation of MAP kinases ERK1/2 were analysed. […]

Sequence of human FGFR1c plus KLB (P11362 22-822): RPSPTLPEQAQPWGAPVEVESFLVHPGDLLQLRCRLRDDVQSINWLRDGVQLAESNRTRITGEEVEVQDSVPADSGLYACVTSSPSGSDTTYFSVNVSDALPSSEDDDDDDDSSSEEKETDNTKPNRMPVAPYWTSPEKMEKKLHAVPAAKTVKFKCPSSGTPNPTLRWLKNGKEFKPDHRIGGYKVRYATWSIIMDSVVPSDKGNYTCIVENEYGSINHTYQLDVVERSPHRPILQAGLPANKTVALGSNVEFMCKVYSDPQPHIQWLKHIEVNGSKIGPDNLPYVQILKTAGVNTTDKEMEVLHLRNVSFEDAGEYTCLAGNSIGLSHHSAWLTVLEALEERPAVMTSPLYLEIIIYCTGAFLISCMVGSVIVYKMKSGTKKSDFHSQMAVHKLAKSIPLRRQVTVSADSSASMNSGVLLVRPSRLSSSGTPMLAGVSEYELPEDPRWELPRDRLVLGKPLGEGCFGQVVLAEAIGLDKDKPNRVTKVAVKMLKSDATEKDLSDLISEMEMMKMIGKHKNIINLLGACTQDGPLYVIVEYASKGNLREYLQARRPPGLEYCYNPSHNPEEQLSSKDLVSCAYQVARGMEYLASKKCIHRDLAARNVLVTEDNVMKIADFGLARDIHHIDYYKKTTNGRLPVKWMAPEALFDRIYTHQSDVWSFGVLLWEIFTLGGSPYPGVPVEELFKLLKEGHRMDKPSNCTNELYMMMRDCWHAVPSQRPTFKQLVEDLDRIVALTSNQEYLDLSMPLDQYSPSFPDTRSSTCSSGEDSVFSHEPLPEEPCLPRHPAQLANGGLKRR
Sequence of human FGFR1c plus KLB (Q86Z14 whole entry, the tested form may be a part): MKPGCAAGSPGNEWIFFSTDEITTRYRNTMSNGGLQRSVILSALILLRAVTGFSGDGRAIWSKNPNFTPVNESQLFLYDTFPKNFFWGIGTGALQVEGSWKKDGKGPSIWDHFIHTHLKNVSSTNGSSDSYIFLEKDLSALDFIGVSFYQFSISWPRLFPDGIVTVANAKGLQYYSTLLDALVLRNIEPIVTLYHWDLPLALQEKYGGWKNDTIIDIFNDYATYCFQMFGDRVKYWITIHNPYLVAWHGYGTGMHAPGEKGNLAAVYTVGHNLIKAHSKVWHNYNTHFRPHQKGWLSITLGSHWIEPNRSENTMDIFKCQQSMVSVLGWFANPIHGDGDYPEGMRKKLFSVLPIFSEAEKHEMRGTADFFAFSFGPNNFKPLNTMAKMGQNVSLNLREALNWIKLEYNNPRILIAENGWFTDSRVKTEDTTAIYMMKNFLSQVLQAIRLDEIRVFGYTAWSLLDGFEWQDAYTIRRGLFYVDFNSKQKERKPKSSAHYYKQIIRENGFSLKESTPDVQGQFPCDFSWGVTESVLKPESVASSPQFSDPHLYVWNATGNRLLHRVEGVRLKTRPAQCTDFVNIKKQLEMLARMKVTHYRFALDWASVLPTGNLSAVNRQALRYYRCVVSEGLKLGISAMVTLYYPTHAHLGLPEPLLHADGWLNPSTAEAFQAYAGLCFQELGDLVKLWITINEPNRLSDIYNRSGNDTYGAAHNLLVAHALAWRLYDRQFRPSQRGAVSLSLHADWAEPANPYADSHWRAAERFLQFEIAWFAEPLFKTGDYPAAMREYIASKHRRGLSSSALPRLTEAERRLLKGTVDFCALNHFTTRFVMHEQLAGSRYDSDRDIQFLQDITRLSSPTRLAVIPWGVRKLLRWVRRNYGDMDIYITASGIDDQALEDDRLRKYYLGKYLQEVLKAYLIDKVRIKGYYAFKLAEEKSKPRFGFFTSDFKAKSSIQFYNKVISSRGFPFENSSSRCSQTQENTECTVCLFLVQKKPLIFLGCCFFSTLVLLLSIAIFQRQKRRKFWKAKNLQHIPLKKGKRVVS

B1: FGF21 wild type: Native Human FGF-21 without signal sequence (protein)
chain: HPIPDSSPLLQPGGQVRQRYLYTDDAQQTEAHLEIREDGTVGGAADQSPESLLQLKALKPGVIQILGVKTSRFLCQRPDGALYGSLHFDPEACSFRELLLEDGYNVYQSEAHGLPLHLPGNKSPHRDPAPRGPARFLPLPGLPPAPPEPPGILAPQPPDVGSSDPLSMVGPSQGRSPSYAS
modifications: FGF-21 mutein H29-S209
For the molecule B1, the EC50 with human FGFR1c plus KLB was found to be 4.3 nM; in the experiment with MAP kinase ERK1/2, 0.135 nM.
